Measured values: paper doi:10.1101/2023.07.20.549950

How the values were obtained:
Experiment in all cases: filter binding
RBM15 RRM12 = molecular target: T1, RBM15 RRM12 (UniProt Q96T37 170-451)
T1 sequence: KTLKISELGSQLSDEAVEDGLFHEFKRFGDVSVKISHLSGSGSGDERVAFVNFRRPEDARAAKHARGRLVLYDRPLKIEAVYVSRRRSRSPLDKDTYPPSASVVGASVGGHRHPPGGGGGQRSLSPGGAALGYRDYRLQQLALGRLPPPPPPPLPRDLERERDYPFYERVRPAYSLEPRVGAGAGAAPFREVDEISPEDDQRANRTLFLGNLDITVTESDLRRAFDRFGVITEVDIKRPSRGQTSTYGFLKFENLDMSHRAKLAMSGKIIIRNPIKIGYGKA

RBM15 RRM3 = molecular target: T2, RBM15 RRM3 (UniProt Q96T37 455-529)
T2 sequence: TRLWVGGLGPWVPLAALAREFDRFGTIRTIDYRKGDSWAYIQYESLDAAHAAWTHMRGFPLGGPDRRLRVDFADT

RBM15 RRM23 = molecular target: T3, RBM15 RRM23 (UniProt Q96T37 374-529)
T3 sequence: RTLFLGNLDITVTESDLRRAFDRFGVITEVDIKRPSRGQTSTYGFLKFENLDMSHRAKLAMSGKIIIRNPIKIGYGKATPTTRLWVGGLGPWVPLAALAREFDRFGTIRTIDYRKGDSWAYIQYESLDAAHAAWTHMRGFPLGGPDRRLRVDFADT

RBM15 RRM123 = molecular target: T4, RBM15 RRM123 (UniProt Q96T37 170-529)
T4 sequence: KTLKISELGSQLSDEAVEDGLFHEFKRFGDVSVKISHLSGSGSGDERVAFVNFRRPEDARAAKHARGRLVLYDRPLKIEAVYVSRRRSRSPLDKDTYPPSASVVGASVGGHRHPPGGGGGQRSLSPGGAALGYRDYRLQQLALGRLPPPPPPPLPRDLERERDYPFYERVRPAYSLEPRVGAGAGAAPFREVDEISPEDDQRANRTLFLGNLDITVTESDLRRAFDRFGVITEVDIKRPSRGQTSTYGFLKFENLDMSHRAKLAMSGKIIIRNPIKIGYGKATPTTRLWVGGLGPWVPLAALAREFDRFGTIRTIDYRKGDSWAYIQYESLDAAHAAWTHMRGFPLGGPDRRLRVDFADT

RBM15 RRM1 = molecular target: T5, RBM15 RRM1 (UniProt Q96T37 170-252)
T5 sequence: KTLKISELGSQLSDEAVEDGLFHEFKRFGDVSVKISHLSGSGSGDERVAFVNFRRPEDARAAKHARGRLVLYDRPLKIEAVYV

Work on GGCCAACACUCUGGCCCAUCGGGGUGACGGCC (structured_RNA) [XIST A-repeat stem-loop (32nt)] yielded a Kd (RBM15 RRM12) of 71 nM, a Kd (RBM15 RRM3) of ~100 nM and a Kd (RBM15 RRM23) of 50 nM. For the same binder, the Kd (RBM15 RRM123) was 79 nM and the Kd (RBM15 RRM1) was 433 nM.

Binder GGUUCUUGAAAAGAGGACC (structured_RNA) [FIRRE RRD stem-loop (19nt)] has a Kd (RBM15 RRM12) of 184 nM, a Kd (RBM15 RRM3) of ~100 nM and a Kd (RBM15 RRM23) of 99 nM. For the same binder, the Kd (RBM15 RRM123) was ~100 nM and the Kd (RBM15 RRM1) was 370 nM.
